According to PMC4197961 (Genes & Development, 2014):
Positions count from the first letter of the chain named. One block for each molecule: values may come before it. Ends that are not written are not given here. Me2 = dimethyl (dimethyl-lysine)

Columns and labels:
[1] = biological target: truncated KDM2A construct (36–517) lacking the 1–35 and 365–449 peptide segments (UniProt Q9Y2K7)
[2] = biological target: T1, KDM2A K323A/F324A (UniProt Q9Y2K7 1-1162, K323A | F324A); assay: cell-based or functional assay
T1 sequence (looked up): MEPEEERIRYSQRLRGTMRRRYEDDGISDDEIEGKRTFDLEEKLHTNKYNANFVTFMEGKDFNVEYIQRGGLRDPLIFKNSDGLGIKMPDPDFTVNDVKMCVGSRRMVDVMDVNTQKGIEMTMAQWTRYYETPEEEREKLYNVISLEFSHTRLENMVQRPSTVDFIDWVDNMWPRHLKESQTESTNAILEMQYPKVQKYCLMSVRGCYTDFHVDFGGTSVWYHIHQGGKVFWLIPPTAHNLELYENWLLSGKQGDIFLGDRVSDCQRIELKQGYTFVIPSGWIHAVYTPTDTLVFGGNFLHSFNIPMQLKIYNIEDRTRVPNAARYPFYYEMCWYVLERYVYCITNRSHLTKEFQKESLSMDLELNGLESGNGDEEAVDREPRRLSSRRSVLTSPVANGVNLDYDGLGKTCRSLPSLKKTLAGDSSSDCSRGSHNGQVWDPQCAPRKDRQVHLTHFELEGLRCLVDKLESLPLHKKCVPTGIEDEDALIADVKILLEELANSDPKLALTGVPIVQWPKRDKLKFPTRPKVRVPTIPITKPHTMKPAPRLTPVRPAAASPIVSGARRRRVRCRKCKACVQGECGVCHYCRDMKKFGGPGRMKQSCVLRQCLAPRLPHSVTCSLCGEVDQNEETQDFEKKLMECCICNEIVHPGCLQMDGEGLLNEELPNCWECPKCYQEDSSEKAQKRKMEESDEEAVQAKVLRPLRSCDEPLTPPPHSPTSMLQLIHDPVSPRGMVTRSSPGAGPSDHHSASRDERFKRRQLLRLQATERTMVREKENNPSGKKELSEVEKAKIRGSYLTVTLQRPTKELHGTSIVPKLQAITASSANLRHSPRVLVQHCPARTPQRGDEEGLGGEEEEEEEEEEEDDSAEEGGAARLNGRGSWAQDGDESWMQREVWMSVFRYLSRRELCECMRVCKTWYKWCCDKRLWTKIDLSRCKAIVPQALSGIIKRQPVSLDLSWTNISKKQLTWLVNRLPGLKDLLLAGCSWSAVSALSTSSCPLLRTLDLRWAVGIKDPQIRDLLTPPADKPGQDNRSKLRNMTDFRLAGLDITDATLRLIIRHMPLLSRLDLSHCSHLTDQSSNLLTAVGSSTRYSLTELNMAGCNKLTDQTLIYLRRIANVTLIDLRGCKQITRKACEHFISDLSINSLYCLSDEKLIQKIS

[3] = biological target: T2, KDM2A N186A (UniProt Q9Y2K7 1-1162, N186A); assay: cell-based or functional assay
T2 sequence (looked up): T1 sequence (looked up) with N186A, A323K, A324F

demethylation of the mutant H3K36me2 peptide by wild-type KDM2A in vitro [1]: < 2 fold
Molecule: H3K36me2 peptide Y41A

H3K36me2 demethylation activity in vitro, fluorescence-based assay [2]: ~3 fold reduction
H3K36me2 demethylation activity in vitro, fluorescence-based assay [3]: ~3 fold reduction
B1: H3(A29–Y41)K36me2 peptide (peptide)
peptide: APATGGVK(Me2)KPHRY
